# T1: mouse leukotriene C4 synthase (mLTC4S) (Mus musculus, UniProt Q60860)
# T1 construct: gene Ltc4s; N-terminal hexa-histidine tag
# T1 sequence (Q60860 1-150): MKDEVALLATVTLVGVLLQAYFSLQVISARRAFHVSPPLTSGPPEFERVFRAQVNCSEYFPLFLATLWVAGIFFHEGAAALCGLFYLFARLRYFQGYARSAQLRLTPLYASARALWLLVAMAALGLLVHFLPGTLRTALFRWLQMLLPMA
# T2: human leukotriene C4 synthase (hLTC4S) (Homo sapiens, UniProt Q16873)
# T2 construct: gene LTC4S
# T2 sequence (Q16873 1-150): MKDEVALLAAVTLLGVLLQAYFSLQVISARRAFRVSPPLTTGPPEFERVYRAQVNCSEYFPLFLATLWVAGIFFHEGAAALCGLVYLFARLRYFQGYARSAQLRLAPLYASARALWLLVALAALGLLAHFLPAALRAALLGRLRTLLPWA
# Legend:
# [1] = molecular target: T1, mouse leukotriene C4 synthase (mLTC4S); test: X-ray crystal structure (co-crystal), […] Å; Km […] also measured; assay type: binding
# [2] = molecular target: T2, human leukotriene C4 synthase (hLTC4S); test: LTC4 formation by purified enzyme, RP-HPLC; competitive inhibition model fit; assay type: biochemical
# [3] = molecular target: T1, mouse leukotriene C4 synthase (mLTC4S); test: as above; assay type: biochemical
# [4] = substrate: CCCCC/C=C\C\C=C/C=C/C=C/[C@@H]1O[C@H]1CCCC(=O)O; test: steady-state kinetics (Km) of purified enzyme, RP-HPLC; assay type: biochemical, Homo sapiens; conditions: GSH hydrophobic LTA4 binding site; pH 7.8
# [5] = substrate: CCCCC/C=C\C\C=C/C=C/C=C/[C@@H]1O[C@H]1CCCC(=O)O; test: as above; assay type: biochemical, Mus musculus; conditions: GSH hydrophobic LTA4 binding site; pH 7.8
molecule,measurement,setting,value
N[C@@H](CCC(=O)N[C@@H](CS)C(=O)NCC(=O)O)C(=O)O [GSH],"X-ray crystal structure (co-crystal), 2.7 Å; Km 1.2±0.24 mM also measured",[1],"In the structure of the mLTC4S in complex with GSH, the tripeptide has a “U” shaped conformation"
"CN(c1ccc(Cl)cc1)c1ccc(C(=O)c2ccc(C(=O)c3ccccc3)c(C(=O)O)c2)nc1 [TK04, 2-Benzoyl-5-{5-[(4-chlorophenyl) (methyl)amino]pyridine-2-carbonyl}benzoic acid]",Ki,[2],41 ± 6.6 nM
same,Ki,[3],37 ± 6.4 nM
human leukotriene C4 synthase (hLTC4S) (Homo sapiens) (protein) MKDEVALLAAVTLLGVLLQAYFSLQVISARRAFRVSPPLTTGPPEFERVYRAQVNCSEYFPLFLATLWVAGIFFHEGAAALCGLVYLFARLRYFQGYARSAQLRLAPLYASARALWLLVALAALGLLAHFLPAALRAALLGRLRTLLPWA,Km,[4],23 ± 3 µM
same,kcat,[4],15.5 ± 0.8 s⁻¹
same,kcat/Km,[4],600000 ± 57000 M⁻¹ s⁻¹
"mouse leukotriene C4 synthase (mLTC4S) (Mus musculus) (protein, N-terminal hexa-histidine tag) MKDEVALLATVTLVGVLLQAYFSLQVISARRAFHVSPPLTSGPPEFERVFRAQVNCSEYFPLFLATLWVAGIFFHEGAAALCGLFYLFARLRYFQGYARSAQLRLTPLYASARALWLLVAMAALGLLVHFLPGTLRTALFRWLQMLLPMA",Km,[5],36 ± 8 µM
same,kcat,[5],81 ± 7 s⁻¹
same,kcat/Km,[5],2.3e+06 ± 260000 M⁻¹ s⁻¹
